From publication PMC9998874, “Deacetylation induced nuclear condensation of HP1γ promotes multiple myeloma drug resistance” (Nature Communications, 2023)

Key:
Details in all cases: both partners purified
[1] = target: T1, GST-MDC1-mC-IDR2 (UniProt Q14676 354-539); assay: pull-down; GST pull-down in vitro: GST-tagged mCherry-MDC1-IDR1 or -IDR2 held, purified HP1γ-GFP
T1 construct: MDC1 intrinsically disordered region 2 (IDR2), residues 354-539; In the droplet and turbidity assays the protein is called mCherry-MDC1-IDR2; also called GST-tagged-mCherry-MDC1-IDR2; MDC1-IDR2; source: purified
T1 sequence (looked up): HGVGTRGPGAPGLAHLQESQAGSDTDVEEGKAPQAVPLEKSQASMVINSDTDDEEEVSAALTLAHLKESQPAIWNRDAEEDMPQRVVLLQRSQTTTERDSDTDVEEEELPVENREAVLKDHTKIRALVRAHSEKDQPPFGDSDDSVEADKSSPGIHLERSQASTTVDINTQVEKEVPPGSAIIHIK

[2] = target: T2, GST-MDC1-mC-IDR1 (UniProt Q14676 143-339); assay: as above
T2 construct: MDC1 intrinsically disordered region 1 (IDR1), residues 143-339; In the droplet and turbidity assays the protein is called mCherry-MDC1-IDR1; also called GST-tagged-mCherry-MDC1-IDR1; MDC1-IDR1; source: purified
T2 sequence (looked up): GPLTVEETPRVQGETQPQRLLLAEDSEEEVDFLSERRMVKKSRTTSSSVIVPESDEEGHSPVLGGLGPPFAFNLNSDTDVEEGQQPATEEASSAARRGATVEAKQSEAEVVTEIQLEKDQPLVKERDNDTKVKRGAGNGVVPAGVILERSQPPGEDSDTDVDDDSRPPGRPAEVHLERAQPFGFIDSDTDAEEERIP

[3] = target: T3, purified HDAC1-flag (UniProt Q13547 1-482); assay: pull-down; GST pull-down in vitro: GST-tagged HP1γ held, purified HDAC1-flag as input
T3 construct: histone deacetylase 1 with a flag tag; also called HDAC1-flag fusion protein; flag-HDAC1; source: HEK293T, expressed, purified
T3 sequence (Q13547 whole entry, the tested form may be a part): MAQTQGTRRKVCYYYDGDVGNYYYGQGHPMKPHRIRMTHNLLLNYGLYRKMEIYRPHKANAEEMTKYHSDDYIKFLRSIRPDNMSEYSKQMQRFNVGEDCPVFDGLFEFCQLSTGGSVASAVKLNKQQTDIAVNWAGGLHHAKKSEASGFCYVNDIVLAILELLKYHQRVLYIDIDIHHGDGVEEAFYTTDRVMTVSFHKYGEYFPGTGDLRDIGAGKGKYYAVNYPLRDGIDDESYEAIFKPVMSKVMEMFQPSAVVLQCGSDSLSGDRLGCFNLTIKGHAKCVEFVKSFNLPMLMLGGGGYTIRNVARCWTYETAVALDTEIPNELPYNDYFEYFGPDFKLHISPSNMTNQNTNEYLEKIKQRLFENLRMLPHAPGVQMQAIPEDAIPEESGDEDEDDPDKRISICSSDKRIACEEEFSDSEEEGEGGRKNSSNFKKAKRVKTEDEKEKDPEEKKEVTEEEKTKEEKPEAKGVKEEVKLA

B1: purified HP1γ-GFP (natural protein)
chain: not shown
notes: HP1γ (CBX3) fused to GFP; the HP1γ-GFP of the pull-down is probably the full-length one (surmised); also called GFP-HP1γ; source: E. coli BL21, purified (glutathione agarose, released by HRV 3C protease)
- binding result [1]: binds
- binding result [2]: binds

B2: GST-fusion HP1γ protein (natural protein)
chain: not shown
notes: HP1γ (CBX3) fused to GST; Probably made in E. coli BL21 as the other GST fusions of the methods (surmised); also called GST-HP1γ; GST-tagged-HP1γ; source: purified GST-fusion protein ('in vitro expression')
- binding result [3]: binds
